The source of these data is patent US20250074972A1, “ANTIBODIES AND METHODS FOR GENERATING THE SAME” (priority 2021, published 2025).

In test [1] the test system is C. albicans WT strain SC5314. Description: Candida albicans growth inhibition assay. Format: cell-based. The conditions noted are these: OD 405 nm. As for the experimental part:
The antifungal activity of Utr2 scAbs was assessed by measuring the growth of fungal cells in microtitre plates. A growth assay was carried out with C. albicans WT strain SC5314 and using caspofungin as a positive control. A starting concentration of 100 μg/ml was prepared for the test scAbs (B5, C8, D3, 1H3, 1B1 and 1D2) and caspofungin and these were double diluted in a 96 well microtitre plate in designated wells. The wells were inoculated using 50 μl 2×10^6 cells/ml diluted in RPMI-1640 medium and incubated for 24 h and 48 h at 37° C. Cell growth was determined by measuring optical density at 405 nm in a spectrophotometer.

Test [2] relates to C. albicans WT and Utr2 overexpression strains. In words: Immunofluorescence staining of C. albicans using Utr2 scAbs. Format: cell-based, Candida albicans. The conditions noted are these: scAb 10 μg/ml (1D2 repeated at 50 μg/ml). The protocol: Overnight grown C. albicans WT and Utr2 overexpression strains were diluted and left to adhere on a poly-L-lysine glass slide for 1 h. To induce hyphal growth the cells were grown in DMEM medium containing 10% heat-inactivated foetal calf serum (FCS) and incubated at 37° C. for 2 h. Cells were washed three times in Dulbecco's phosphate-buffered saline (DPBS) and fixed with 4% paraformaldehyde at room temperature for 15 minutes. After washing, cells were blocked with 1.5% BSA and incubated for 1 h. Cells were washed as before and stained with Utr2 scAbs at 10 μg/ml for 1 h at room temperature. After washing, cells were stained with FITC-labelled anti-human kappa light chain antibody (1 μg/ml) and incubated at room temperature for 1 h. Cells were washed again and stained with 25 μg/ml of Calcofluor white (CFW) to illuminate chitin-containing structures. Mounting medium was added with a coverslip before images were taken using an UltraVIEW® Vox spinning disk confocal microscope (Perkin Elmer, Waltham, Mass, USA). Calcofluor white stain was viewed at lower brightness (×1) and FITC stain was viewed at higher brightness (×8). Calcofluor white stained the chitin rich cell wall as well as septa of both C. albicans strains.
The immunofluorescence staining was repeated for 1D2 scAb with higher concentration of scAb (50 μg/ml) and FITC-labelled anti-human kappa light chain antibody (5 μg/ml). […]

Test [3] deals with A. fumigatus AF293/FGSC1100 hyphae. In words: Whole cell binding ELISA, A. fumigatus hyphae. Details: species or system Aspergillus fumigatus. The following applies: starting concentration 100 μg/ml scAb. As for the experimental part:
C. albicans Utr2 shares certain degree of sequence similarity with S. cerevisiae Utr2, S. cerevisiae Crh1 and an Aspergillus fumigatus allergen Aspf9, with highly conserved putative glycosyl hydrolase domains (Alberti-Segui et al., 2004). The cross-reactivity of selected Utr2 scAbs to A. fumigatus was tested by performing a whole cell binding ELISA using C. albicans SC5314 and A. fumigatus AF293/FGSC1100 strains. To induce hyphal formation, wells of a MaxiSorp flat-bottom 96 well plate was coated with approximately 10^6 overnight grown cells diluted in DMEM or RPMI-1640 modified medium containing 10% heat-inactivated foetal calf serum (FCS) and incubated at 37° C. for 2-20 h. Cells were washed three times in PBS+0.05% Tween, blocked with 1.5% bovine serum albumin (BSA), and incubated at room temperature for 1 h. Cells were washed as before and a starting concentration of 100 μg/ml scAb in 1% blocking buffer was added in duplicate in doubling dilutions and incubated at room temperature for 1.5 h. After washing, cells were incubated with anti-human C kappa peroxidase antibody as described previously. Following incubation for 45 min at room temperature, wells were washed and stained with tetramethylbenzidine (TMB) and read at an absorbance of 450 nm in a VersaMax microplate reader (Molecular Devices, USA).

Setting [4] is: after 24 h, top concentration of 100 μg/ml.

B1: C8: Utr2 antibody; SEQ ID NO: 18 (protein)
scFv: EVQLVQSGAEVKKPGSSVKVSCKASGGTFSSYAISWVRQAPGQGLEWMGIINPSGGSTSYAQKFQGRVTMTRDTSTSTVYMELSSLRSEDTAVYYCARGTKGKDYYYMDVWGKGTLVTVSSLEGGGGSGGGGSGGGASDIQMTQSPSSLSASVGDRVTITCRASQSISTYLNWYQQKPGTAPNLLIYGASNLQSGVPSRFSGSGSGTDFTLTISSLQPEDFATYYCQQSYSTPLTFGGGTKVDIKR
modifications: C8 Amino Acid Sequence
On to B1, for which the results for the growth inhibition in test [1] (setting [4]) and in test [1] (after 48 h incubation) were 40% and “No further reduction”, respectively.

B2: 1B1: Utr2 antibody; SEQ ID NO: 10 (protein)
scFv: QGQLVQSGGGVVQPGRSLRLSCAASGFTFSSYAMHWVRQAPGKGLEWVAVISYDGSNKYYADSVKGRFTISRDNSKNTLYLQMNSLRAEDTAVYYCARIAHPRTRGGKEVEYFQHWGQGTLVTVSSLEGGGGSGGGGSGGGASDIVMTQTPLSSPVTLGQPASISCRSSQSLVYSDGNTYLNWFQQRPGQSPRRLIYKVSNRDSGVPDRFSGSGSGTDFTLKISRVEAEDVGVYYCMQGTHWPPSFGQGTKLEIKR
modifications: 1B1 Amino Acid Sequence
For the molecule B2, in test [2], the immunofluorescence staining result is “minimal staining”. In addition, the “cross-reactivity to A. fumigatus hyphae” value in test [3] is recorded as “cross-reactive”.

B3: D3: Utr2 antibody; SEQ ID NO: 26 (protein)
scFv: QMQLVQSGAEVKKPGESLKISCKGSGYSFTSYWIGWVRQMPGKGLEWMGIIYPGDSDTRYSPSFQGQVTISADKSISTAYLQWSSLKASDTAMYYCARLKTGDQLPDIWGQGTMVTVSSLEGGGGSGGGGSGGGASDIVMTQTPLSLSVTPGQPASISCKSSQSLLHSDGKTYLYWYLQKPGQPPQLLIYEVSNRFSGVPDRFSGSGSGTDFTLKISRVEAEDVGVYYCMQTIQLPATFGGGTKLEIRR
modifications: D3 Amino Acid Sequence
In the case of B3, the growth inhibition result in test [1] (after 48 h incubation) was “approximately 40%”.

B4: 1C2: Utr2 antibody; SEQ ID NO: 14 (protein)
scFv: QVQLVQSGAEVKKPGASVKVSCKASGYTFTSYAMHWVRQAPGQRLEWMGWINAGNGNTKYSQKFQGRVTITRDTSASTAYMELSSLRSEDTAVYYCARGGAAAGYYMDVWGKGTLVTVSSLEGGGGSGGGGSGGGASNFMLTQPHSVSESPGKTVTISCTRSSGSIASNYVQWYQQRPGSSPTTVIYDDNQRPSGVPDRFSASIDSSSNSASLTISGLKTEDEADYYCQSYDSSIVVFGGGTKLTVLG
modifications: 1C2 Amino Acid Sequence
In the case of B4, in test [3], the “cross-reactivity to A. fumigatus hyphae” value was “cross-reactive”.

B5: 1D2: Utr2 antibody; SEQ ID NO: 24 (protein)
scFv: QVQLVQSGAEVKKPGASVKVSCKASGYSFTNYDIYWVRQATGQGLEWVGFINPKTGKTGYAQKFQGRVTMSRDTSITTAYMELNSLTSEDTAVYYCASISGYWGQGTLVTVSSLEGGGGSGGGGSGGGASDIVMTQSPLSLPVTLGQPASISCRSSQSLVYSDGNTYLNWFQQRPGQSPRRLIYKVSNRDSGVPDRFSGSGSGTDFTLKISRVEAEDAGLYYCMQGSHWPPTFGQGTKVEIKR
modifications: 1D2 Amino Acid Sequence
With B5, in test [2], the immunofluorescence staining entry is “specifically stained the hyphal tips and bud surface”. In addition, the “cross-reactivity to A. fumigatus hyphae” value in test [3] is reported as “cross-reactive”.

B6: B5: Utr2 antibody; SEQ ID NO: 12 (protein)
scFv: QVQLVESGGGVVQPGRSLRLSCAASGFTFSSYGMHWVRQAPGKGLEWVAVISYDGSNKYYADSVKGRFTISRDNSKNTLYLQMNSLKTEDTAQYYCVRVRRSGMARGLIDYWGQGTLVTVSSLEGGGGSGGGGSGGGASSYELTQDPAVSVALGQTVRITCQGDILRSYYASWYQQKPGQAPVLVIYGKNNRPSGIPDRFSGSSSGNTASLTITGAQAEDEADYYCNSRDSSGNHKVFGGGTKVTVLG
modifications: B5 Amino Acid Sequence
Regarding B6, the growth inhibition in test [1] (setting [4]) is 40%; in test [1] (after 48 h incubation), “No further reduction”.
